Results on one molecule are retold here after PMC10400651, “Gain-of-function mutant p53 together with ERG proto-oncogene drive prostate cancer by beta-catenin activation and pyrimidine synthesis”.

The target of this series is p53 WT (UniProt P04637 1-393). The series is described as follows: EMSA; Thermo EMSA kit (20148) protocol; 6% native PAGE; supershift with 1 ug anti-p53 for 1 h at room temperature; recombinant p53 eluted in PBS; buffer, salt and pH. The settings on record: protein: recombinant; tags: untagged after thrombin cleavage of GST; chain copies: 4; label: biotin; blunt. In general terms: In EMSA bound probe runs differently from free probe, usually more slowly.
p53 WT, sequence (P04637 whole entry): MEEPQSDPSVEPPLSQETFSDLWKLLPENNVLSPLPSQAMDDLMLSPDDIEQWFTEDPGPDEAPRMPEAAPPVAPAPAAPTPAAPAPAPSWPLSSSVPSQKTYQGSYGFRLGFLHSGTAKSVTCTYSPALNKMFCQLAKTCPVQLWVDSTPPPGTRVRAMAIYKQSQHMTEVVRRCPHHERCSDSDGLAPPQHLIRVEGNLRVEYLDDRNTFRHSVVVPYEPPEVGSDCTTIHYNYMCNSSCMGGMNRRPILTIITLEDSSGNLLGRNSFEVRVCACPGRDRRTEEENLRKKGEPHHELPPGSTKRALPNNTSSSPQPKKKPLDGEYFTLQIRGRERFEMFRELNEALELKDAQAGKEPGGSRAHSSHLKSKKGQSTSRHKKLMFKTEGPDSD

B1: CTNNB1-probe1 (MP53BS) (dsDNA)
DNA 1: GCCCCCTCGCGCCCCGCCCCTTGTC
DNA 2: GACAAGGGGCGGGGCGCGAGGGGGC
Take B1: the binding result is “no binding”.
